# Earlier results as cited in paper PMC5302535.
# pKd: −log10 of the molar value.
# Biological target: transferrin receptor (TfR) (Homo sapiens) (UniProt P02786)
# Sequence (P02786 89-760): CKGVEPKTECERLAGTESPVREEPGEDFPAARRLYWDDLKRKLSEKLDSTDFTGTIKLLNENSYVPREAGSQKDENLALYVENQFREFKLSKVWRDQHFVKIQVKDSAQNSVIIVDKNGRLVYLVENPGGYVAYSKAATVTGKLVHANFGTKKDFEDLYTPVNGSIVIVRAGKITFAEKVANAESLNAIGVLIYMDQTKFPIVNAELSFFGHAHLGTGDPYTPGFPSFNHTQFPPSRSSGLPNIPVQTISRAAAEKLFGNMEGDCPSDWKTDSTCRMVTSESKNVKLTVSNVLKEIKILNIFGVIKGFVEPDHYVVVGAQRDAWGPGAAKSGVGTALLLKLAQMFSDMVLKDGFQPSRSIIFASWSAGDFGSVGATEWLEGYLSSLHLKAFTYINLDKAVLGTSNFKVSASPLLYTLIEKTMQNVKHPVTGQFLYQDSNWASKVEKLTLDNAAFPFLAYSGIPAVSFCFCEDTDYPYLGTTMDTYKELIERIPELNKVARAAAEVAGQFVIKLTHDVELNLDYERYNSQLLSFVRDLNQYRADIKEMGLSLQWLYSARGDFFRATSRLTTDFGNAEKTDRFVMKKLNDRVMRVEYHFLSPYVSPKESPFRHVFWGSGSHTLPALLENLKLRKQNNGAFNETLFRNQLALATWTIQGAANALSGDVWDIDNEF
substance,measurement,value
T7 peptide,pKd,8.00
